Experimental data reported in paper PMC5414002 (mBio, 2017).

Molecular target: the molecule itself
Test: cryo-EM structure; EcFtsZ filaments, 0.5 mg/ml in 50 mM HEPES-KOH, 100 mM potassium acetate, 5 mM magnesium acetate, pH 7.7, 20°C, 0.1 mM GMPCPP; helical reconstruction in RELION

B1: Full-length, untagged wild-type Escherichia coli FtsZ (natural protein, UniProt P0A9A6 1-383, looked up)
chain: MFEPMELTNDAVIKVIGVGGGGGNAVEHMVRERIEGVEFFAVNTDAQALRKTAVGQTIQIGSGITKGLGAGANPEVGRNAADEDRDALRAALEGADMVFIAAGMGGGTGTGAAPVVAEVAKDLGILTVAVVTKPFNFEGKKRMAFAEQGITELSKHVDSLITIPNDKLLKVLGRGISLLDAFGAANDVLKGAVQGIAELITRPGLMNVDFADVRTVMSEMGYAMMGSGVASGEDRAEEAAEMAISSPLLEDIDLSGARGVLVNITAGFDLRLDEFETVGNTIRAFASDNATVVIGTSLDPDMNDELRVTVVATGIGMDKRPEITLVTNKQVQQPVMDRYQQHGMAPLTQEQKPVAKVVNDNAPQTAKEPDYLDIPAFLRKQAD
notes: also called EcFtsZ; source: E. coli C41(DE3), purified (GTP- and calcium-induced precipitation, anion exchange)
- binding result: binds
